Laboratory results taken from ChEMBL document CHEMBL5143569.

Experiments:
[1] = substrate: CC1(CN)CCN(c2cnc(Sc3cccc(Cl)c3Cl)c(N)n2)CC1; settings: Homo sapiens; filed as negative allosteric modulator; dose 0.032 µM
Description: Non-competitive inhibition of wild-type human SHP2 (1 to 535 residues) using DiFMUP as substrate assessed as Km at 0.032 uM measured by Lineweaver-Burk plot analysis

[2] = substrate: CC1(CN)CCN(c2cnc(Sc3cccc(Cl)c3Cl)c(N)n2)CC1; settings: Homo sapiens; filed as negative allosteric modulator; dose 0.08 µM
Description: Non-competitive inhibition of wild-type human SHP2 (1 to 535 residues) using DiFMUP as substrate assessed as Km at 0.08 uM measured by Lineweaver-Burk plot analysis

[3] = substrate: CC1(CN)CCN(c2cnc(Sc3cccc(Cl)c3Cl)c(N)n2)CC1; settings: Homo sapiens; filed as negative allosteric modulator; dose 0.2 µM

B1: Tyrosine-protein phosphatase non-receptor type 11 (Homo sapiens), Q06124 (protein)
chain: MTSRRWFHPNITGVEAENLLLTRGVDGSFLARPSKSNPGDFTLSVRRNGAVTHIKIQNTGDYYDLYGGEKFATLAELVQYYMEHHGQLKEKNGDVIELKYPLNCADPTSERWFHGHLSGKEAEKLLTEKGKHGSFLVRESQSHPGDFVLSVRTGDDKGESNDGKSKVTHVMIRCQELKYDVGGGERFDSLTDLVEHYKKNPMVETLGTVLQLKQPLNTTRINAAEIESRVRELSKLAETTDKVKQGFWEEFETLQQQECKLLYSRKEGQRQENKNKNRYKNILPFDHTRVVLHDGDPNEPVSDYINANIIMPEFETKCNNSKPKKSYIATQGCLQNTVNDFWRMVFQENSRVIVMTTKEVERGKSKCVKYWPDEYALKEYGVMRVRNVKESAAHDYTLRELKLSKVGQGNTERTVWQYHFRTWPDHGVPSDPGGVLDFLEEVHHKQESIMDAGPVVVHCSAGIGRTGTFIVIDILIDIIREKGVDCDIDVPKTIQMVRSQRSGMVQTEAQYRFIYMAVQHYIETLQRRIEEEQKSKRKGHEYTNIKYSLADQTSGDQSPLPPCTPTPPCAEMREDSARVYENVGLMQQQKSFR
Work on B1 yielded a Km [1] of 95.4 µM, a Km [2] of 103 µM and a Km [3] of 142 µM.
